Data on 72 molecules can be found in US20250011363A1, “OPTIMIZED SHORTENED PEPTIDE THAT BINDS TO ACETYLCHOLINE RECEPTOR, AND USE THEREOF” (SKINMED CO., LTD., priority 2021, published 2025).

Assay [1] addresses acetylcholine receptor. The assay is described as follows: SPR, AchR immobilized on chip, peptide 10 uM. In general terms: In SPR one partner is held on a chip, and binding of the other changes the refractive index at the surface.
The target in assay [2] is acetylcholine receptor. In words: SPR, peptide at 10 uM.

Consider KRLQR [5mer-186], for which the Binding affinity (RU) with acetylcholine receptor [1] amounted to 64 RU.

In the case of RDAWRK [6mer-2-1103], the Binding affinity with acetylcholine receptor [2] worked out at 42 RU.

RASWRK [6mer-2-1112] came in with a Binding affinity in the assay with acetylcholine receptor [2] of 26 RU.

Consider KMEVKK [6mer-2-1116], for which the Binding affinity in the assay with acetylcholine receptor [2] was 31 RU.

On to KEDMRK [6mer-2-1109], for which the Binding affinity with acetylcholine receptor [2] is 26 RU.

The molecule KKKVRR [6mer-2-1108] yielded a Binding affinity with acetylcholine receptor [2] of 36 RU.

On to RWLQR [5mer-486], for which the Binding affinity (RU) in the assay with acetylcholine receptor [1] amounted to 53 RU.

For the molecule REDWRR [6mer-2-1099], the Binding affinity with acetylcholine receptor [2] was determined as 21 RU.

In the case of KQIRR [5mer-491], in the assay with acetylcholine receptor [1], the Binding affinity (RU) was found to be 81 RU.

KRQRK [5mer-485] showed a Binding affinity (RU) with acetylcholine receptor [1] of 58 RU.

For the molecule RFDGRR [6mer-2-1118], the Binding affinity with acetylcholine receptor [2] turned out to be 42 RU.

As for KHKGKR [6mer-2-1102], the Binding affinity with acetylcholine receptor [2] was determined as 32 RU.

For the molecule RVLSK [5mer-182], the Binding affinity (RU) in the assay with acetylcholine receptor [1] was found to be 70 RU.

Molecule RKKFRK [6mer-2-1114] came in with a Binding affinity with acetylcholine receptor [2] of 34 RU.

In the assay with acetylcholine receptor [1], RWLLK [5mer-490] displayed a Binding affinity (RU) of 60 RU.

As to RSLLK [5mer-181], in the assay with acetylcholine receptor [1], the Binding affinity (RU) was 72 RU.

Take RQYYK [5mer-479]: in the assay with acetylcholine receptor [1], the Binding affinity (RU) was 70 RU.

With RMTKKK [6mer-2-1110], the Binding affinity with acetylcholine receptor [2] was found to be 37 RU.

In the assay with acetylcholine receptor [1], RVQTK [5mer-478] came in with a Binding affinity (RU) of 75 RU.

In the case of KVVSR [5mer-195], in the assay with acetylcholine receptor [1], the Binding affinity (RU) was 82 RU.

As to KQRYR [5mer-180], the Binding affinity (RU) in the assay with acetylcholine receptor [1] was 74 RU.

RSISR [5mer-483] displayed a Binding affinity (RU) in the assay with acetylcholine receptor [1] of 51 RU.

Turning to RLYTK [5mer-179], in the assay with acetylcholine receptor [1], the Binding affinity (RU) was determined as 55 RU.

Take KWQSK [5mer-194]: in the assay with acetylcholine receptor [1], the Binding affinity (RU) is 84 RU.

In turn, KSIRR [5mer-493] came in with a Binding affinity (RU) with acetylcholine receptor [1] of 57 RU.

As for RVLYK [5mer-176], the Binding affinity (RU) with acetylcholine receptor [1] was found to be 52 RU.

Regarding RCNFKK [6mer-2-1122], the Binding affinity with acetylcholine receptor [2] was determined as 22 RU.

In the assay with acetylcholine receptor [1], RWVRK [5mer-177] returned a Binding affinity (RU) of 77 RU.

Take RVVLR [5mer-492]: the Binding affinity (RU) with acetylcholine receptor [1] was 80 RU.

Molecule RRVLK [5mer-178] displayed a Binding affinity (RU) with acetylcholine receptor [1] of 87 RU.

In the assay with acetylcholine receptor [2], KPSKRR [6mer-2-1121] registered a Binding affinity of 21 RU.

As for RLVTK [5mer-487], in the assay with acetylcholine receptor [1], the Binding affinity (RU) turned out to be 62 RU.

On to RTAPKK [6mer-2-1100], for which, in the assay with acetylcholine receptor [2], the Binding affinity came to 24 RU.

With KSYSR [5mer-489], in the assay with acetylcholine receptor [1], the Binding affinity (RU) worked out at 63 RU.

In turn, RAHERK [6mer-2-1107] returned a Binding affinity in the assay with acetylcholine receptor [2] of 29 RU.

For the molecule KLISR [5mer-198], the Binding affinity (RU) with acetylcholine receptor [1] is 74 RU.

For RRYRR [5mer-185], the Binding affinity (RU) in the assay with acetylcholine receptor [1] came out at 86 RU.

In turn, KLISK [5mer-498] returned a Binding affinity (RU) in the assay with acetylcholine receptor [1] of 53 RU.

With RWVCR [5mer-187], in the assay with acetylcholine receptor [1], the Binding affinity (RU) is 74 RU.

For KYSPRK [6mer-2-1115], the Binding affinity with acetylcholine receptor [2] was 39 RU.

In turn, RSRQK [5mer-197] registered a Binding affinity (RU) with acetylcholine receptor [1] of 68 RU.

RLLQK [5mer-189] came in with a Binding affinity (RU) in the assay with acetylcholine receptor [1] of 65 RU.

In the assay with acetylcholine receptor [1], RVRCR [5mer-191] showed a Binding affinity (RU) of 75 RU.

RYTKKR [6mer-2-1104] returned a Binding affinity in the assay with acetylcholine receptor [2] of 38 RU.

RSYYR [5mer-196]: the Binding affinity (RU) with acetylcholine receptor [1] is 69 RU.

In turn, REDEKK [6mer-2-1111] showed a Binding affinity in the assay with acetylcholine receptor [2] of 23 RU.

Consider KPNFRK [6mer-2-1113], for which the Binding affinity with acetylcholine receptor [2] is 43 RU.

In the assay with acetylcholine receptor [2], RTKMRR [6mer-2-1101] had a Binding affinity of 38 RU.

As to KVVTK [5mer-495], in the assay with acetylcholine receptor [1], the Binding affinity (RU) came to 52 RU.

Regarding RRFCK [5mer-475], the Binding affinity (RU) with acetylcholine receptor [1] came out at 56 RU.

KVRSR [5mer-488] displayed a Binding affinity (RU) with acetylcholine receptor [1] of 58 RU.

RITARR [6mer-2-1123] displayed a Binding affinity with acetylcholine receptor [2] of 36 RU.

Take KLQCR [5mer-184]: the Binding affinity (RU) with acetylcholine receptor [1] turned out to be 68 RU.

As for KWFSK [5mer-188], in the assay with acetylcholine receptor [1], the Binding affinity (RU) worked out at 82 RU.

In the case of KDKVKR [6mer-2-1106], the Binding affinity with acetylcholine receptor [2] was 28 RU.

RNNAKK [6mer-2-1105] came in with a Binding affinity with acetylcholine receptor [2] of 28 RU.

As to RWRSR [5mer-190], the Binding affinity (RU) with acetylcholine receptor [1] turned out to be 84 RU.

As for KCTVRK [6mer-2-1119], the Binding affinity with acetylcholine receptor [2] worked out at 39 RU.

RGFCK [5mer-494] yielded a Binding affinity (RU) in the assay with acetylcholine receptor [1] of 54 RU.

Regarding KQFCK [5mer-482], the Binding affinity (RU) with acetylcholine receptor [1] was 75 RU.

KSFRK [5mer-192]: the Binding affinity (RU) with acetylcholine receptor [1] was 75 RU.

Turning to KGIQK [5mer-496], the Binding affinity (RU) with acetylcholine receptor [1] is 81 RU.

Consider RDMMKK [6mer-2-1120], for which the Binding affinity with acetylcholine receptor [2] stood at 28 RU.

Consider RVIRK [5mer-193], for which the Binding affinity (RU) with acetylcholine receptor [1] came to 80 RU.

In turn, KSYCK [5mer-481] gave a Binding affinity (RU) in the assay with acetylcholine receptor [1] of 78 RU.

In the assay with acetylcholine receptor [1], RSICK [5mer-476] displayed a Binding affinity (RU) of 70 RU.

In turn, KRRCR [5mer-497] came in with a Binding affinity (RU) in the assay with acetylcholine receptor [1] of 76 RU.

Molecule RSFQK [5mer-484] yielded a Binding affinity (RU) in the assay with acetylcholine receptor [1] of 51 RU.

Consider KRVYR [5mer-183], for which the Binding affinity (RU) in the assay with acetylcholine receptor [1] came out at 64 RU.

Turning to RMHVKR [6mer-2-1117], the Binding affinity with acetylcholine receptor [2] stood at 21 RU.

In the assay with acetylcholine receptor [1], RWYLR [5mer-480] displayed a Binding affinity (RU) of 75 RU.

In turn, KGYSR [5mer-477] came in with a Binding affinity (RU) with acetylcholine receptor [1] of 58 RU.
